What was measured:
Experiment in all cases: flow cytometry, transfected CHO cells; crude undiluted periplasmic scFv extract; anti-FLAG M2 + anti-mouse IgG Fcγ-PE; control PBS/2% FCS
[1] = molecular target: T1, Hu CDH3 Dom1C mu (aa 180-215), human/mouse chimeric CDH3 on CHO cells (chimeric hu/mu, UniProt P22223 108-681 (human entry))
T1 chain: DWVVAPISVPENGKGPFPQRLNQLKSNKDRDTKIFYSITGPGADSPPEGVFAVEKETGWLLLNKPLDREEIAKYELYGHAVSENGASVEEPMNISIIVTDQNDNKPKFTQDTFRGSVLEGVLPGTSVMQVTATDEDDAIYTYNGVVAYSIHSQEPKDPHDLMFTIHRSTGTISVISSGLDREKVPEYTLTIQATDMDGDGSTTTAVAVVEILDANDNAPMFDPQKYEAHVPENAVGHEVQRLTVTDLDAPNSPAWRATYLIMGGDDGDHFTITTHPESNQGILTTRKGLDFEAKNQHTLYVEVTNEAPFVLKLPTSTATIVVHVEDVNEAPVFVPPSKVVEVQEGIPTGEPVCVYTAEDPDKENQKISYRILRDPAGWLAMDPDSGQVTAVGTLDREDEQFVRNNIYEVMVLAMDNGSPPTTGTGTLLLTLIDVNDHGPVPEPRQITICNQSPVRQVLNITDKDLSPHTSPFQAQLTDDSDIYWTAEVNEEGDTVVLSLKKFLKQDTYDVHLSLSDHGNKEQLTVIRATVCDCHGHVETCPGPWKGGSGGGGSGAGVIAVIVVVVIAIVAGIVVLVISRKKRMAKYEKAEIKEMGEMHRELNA
Method: (§1) Cells transfected with human or murine CDH3, or with the chimeric human/mouse CDH3 molecules (see Example 1) were stained with crude, undiluted periplasmic extract containing scFv binding to human/macaque CDH3. […] As negative control, cells were incubated with PBS/2% FCS instead of the periplasmic extract. The samples were measured by flow cytometry.

[2] = molecular target: T2, Hu CDH3 Dom2 mu (aa 216-327), human/mouse chimeric CDH3 on CHO cells (chimeric hu/mu)
T2 chain: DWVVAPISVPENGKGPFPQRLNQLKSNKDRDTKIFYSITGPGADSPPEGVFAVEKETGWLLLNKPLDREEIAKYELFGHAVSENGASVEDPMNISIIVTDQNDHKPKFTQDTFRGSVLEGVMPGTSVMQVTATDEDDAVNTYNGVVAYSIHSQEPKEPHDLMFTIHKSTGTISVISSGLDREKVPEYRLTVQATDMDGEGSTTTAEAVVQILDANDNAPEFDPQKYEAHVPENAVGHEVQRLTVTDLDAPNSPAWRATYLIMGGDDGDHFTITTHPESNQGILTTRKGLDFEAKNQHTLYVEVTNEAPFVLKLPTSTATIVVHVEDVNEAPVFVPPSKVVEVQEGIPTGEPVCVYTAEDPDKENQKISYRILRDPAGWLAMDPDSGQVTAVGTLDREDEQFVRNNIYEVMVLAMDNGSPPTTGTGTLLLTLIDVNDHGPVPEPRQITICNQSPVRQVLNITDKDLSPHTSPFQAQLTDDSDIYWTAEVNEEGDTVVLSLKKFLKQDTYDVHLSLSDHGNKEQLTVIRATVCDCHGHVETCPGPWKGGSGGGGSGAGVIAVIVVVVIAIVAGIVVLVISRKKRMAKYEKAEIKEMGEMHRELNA
Method: as §1

[3] = molecular target: Hu CDH3 Dom3 mu (aa 328-440), human/mouse chimeric CDH3 on CHO cells (chimeric hu/mu)
Method: as §1

Measured: binding result

B1: CDH3-10 scFv (scFv)
scFv: EVQLVEESGGGLVKPGGSLKLSCAASGFTFSSYAMSWVRQTPDKRLEWVATISSGGHYTYYPDSVKGRFTISRDNAKNTLYLQMSSLKSEDTAMYYCASYYYGIPFGYWGQGTTVTVSSGGGGSGGGGSGGGGSELVMTQSPSSLSASLGEGVSLTCRASQDIGINLIWLRQEPDGTIKRLIYDTSSLDSGVPKRFSGSRSGSDYSLTISSLESEDFVHYYCLQYGSSPLTFGAGTKLEIK
binds: all assays above

B2: CDH3-9 (scFv)
scFv: EVQLVEESGGDLVKPGGSLKLSCAASGFTFSTYGMSWVRQTPDKRLEWVATISSGGHYSYYPDSVKGRFTISRDNAKNTLYLQMSSLKSEDTAMYYCASYYYGSPFAYWGQGTTVTVSSGGGGSGGGGSGGGGSELQMTQSPSSLSASLGERVSLTCRASQDIGSSLNWLQQKPDGTIKRLIYDTSSLDSGVPKRFSGSRSGSDYSLTISSLESEDFGDYYCVQYGSSPLTFGAGTKLEIK
notes: Used as crude periplasmic extract and detected through a FLAG tag; also called CDH3-9 scFv
binds: all assays above

B3: CDH3-8 (scFv)
scFv: EVQLVEQSGAEVVKPGASVKITCKASGYAFSSYWMNWVRQRPGKGLEWIGHIYPGDGDTNYNGKFKGKVTLTADKSSNTAYMQLSDLTPEDSAVYFCARDRGSFGAWFAYWGQGTTVTVSSGGGGSGGGGSGGGGSELVMTQTPSSLSASLGDRVTISCRASQDISNYLNWYQQKPDGTVKLLIYYTSRLHSGVPSRFSGSGSGTDYSLTISNLEQEDIATYFCQQGNRNPPTFGGGTKLEIK
notes: Used as crude periplasmic extract and detected through a FLAG tag; also called CDH3-8 scFv
binds: all assays above
